Results taken from PMC1166539, “Determination of thermodynamic parameters of Xerocomus chrysenteron lectin interactions with N-acetylgalactosamine and Thomsen-Friedenreich antigen by isothermal titration calorimetry” (BMC Biochemistry, 2005).

B1: fetuin from fetal bovine serum (natural protein, UniProt P12763 19-359, looked up)
chain: IPLDPVAGYKEPACDDPDTEQAALAAVDYINKHLPRGYKHTLNQIDSVKVWPRRPTGEVYDIEIDTLETTCHVLDPTPLANCSVRQQTQHAVEGDCDIHVLKQDGQFSVLFTKCDSSPDSAEDVRKLCPDCPLLAPLNDSRVVHAVEVALATFNAESNGSYLQLVEISRAQFVPLPVSVSVEFAVAATDCIAKEVVDPTKCNLLAEKQYGFCKGSVIQKALGGEDVRVTCTLFQTQPVIPQPQPDGAEAEAPSAVPDAAGPTPSAAGPPVASVVVGPSVVAVPLPLHRAHYDLRHTFSGVASVESSSGEAFHVGKTPIVGQPSIPGGPVRLCPGRIRYFKI
modifications: three carbohydrate units O-linked to Thr or Ser residues and three complex glycans N-linked to Asn residues (a fourth O-linked residue may exist); exposed Gal residues linked to sialic acid residues
notes: fetuin (fetuin-A, alpha-2-HS-glycoprotein), bovine, from fetal bovine serum; glycoprotein bearing the Thomsen-Friedenreich antigen motif; also called native fetuin; source: bought: Sigma (from fetal bovine serum)
B2: asialofetuin from fetal bovine serum (natural protein, UniProt P12763 19-359, looked up)
chain: IPLDPVAGYKEPACDDPDTEQAALAAVDYINKHLPRGYKHTLNQIDSVKVWPRRPTGEVYDIEIDTLETTCHVLDPTPLANCSVRQQTQHAVEGDCDIHVLKQDGQFSVLFTKCDSSPDSAEDVRKLCPDCPLLAPLNDSRVVHAVEVALATFNAESNGSYLQLVEISRAQFVPLPVSVSVEFAVAATDCIAKEVVDPTKCNLLAEKQYGFCKGSVIQKALGGEDVRVTCTLFQTQPVIPQPQPDGAEAEAPSAVPDAAGPTPSAAGPPVASVVVGPSVVAVPLPLHRAHYDLRHTFSGVASVESSSGEAFHVGKTPIVGQPSIPGGPVRLCPGRIRYFKI
modifications: O-linked and N-linked glycans as in fetuin, but the sialic acid residues are absent
notes: fetuin (fetuin-A, alpha-2-HS-glycoprotein), bovine, from fetal bovine serum, without sialic acids (asialofetuin); Same polypeptide as fetuin; it differs only in lacking sialic acid on the glycans; source: bought: Sigma (from fetal bovine serum)
B3: Xerocomus chrysenteron lectin with histidine tag and TEV site (natural protein, UniProt Q8WZC9 1-143, looked up)
chain: MSYSITLRVYQTNRDRGYFSIVEKTVWHFANGGTWSEANGAHTLTQGGSGTSGVLRFLSTKGERITVAVGVHNYKRWCDVVTGLKPDETALVINPQYYNNGGRDYVREKQLAEYSVTSAIGTKVEVVYTVAEGNNLEANVIFS
notes: lectin from the mushroom Xerocomus chrysenteron (XCL); expressed as a fusion of histidine tag, TEV site and XCL; The fits used the monomer concentration; also called XCL; XCLtag

How the values were obtained:
[1] = target: T1, XCL (XCLtag), Xerocomus chrysenteron lectin (Xerocomellus chrysenteron, UniProt Q8WZC9); experiment: isothermal titration calorimetry; format: binding; details: 25 mM sodium phosphate pH 7, 27°C
T1 construct: recombinant, E. coli BL21(DE3); homotetramer
T1 sequence (Q8WZC9 1-143): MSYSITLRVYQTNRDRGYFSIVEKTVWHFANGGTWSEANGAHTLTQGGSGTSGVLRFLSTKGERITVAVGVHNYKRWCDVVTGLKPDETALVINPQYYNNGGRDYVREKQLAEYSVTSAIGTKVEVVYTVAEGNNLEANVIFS

[2] = target: B3; experiment: ITC; 2 mM fetuin or asialofetuin titrated (38 injections of 5 ul) into 0.25 mM XCLtag in the cell; 27°C; 25 mM Na2HPO4/NaH2PO4, pH 7; XCL monomer concentration used in the fit; details: both partners purified
[3] = target: B3; experiment: as above; details: both partners purified; remark: listed apart in the source
[4] = target: B2; experiment: as above; details: both partners purified
[5] = target: B1; experiment: as above; details: both partners purified

In the case of CC(=O)N[C@H]1C(O)O[C@H](CO)[C@H](O)[C@@H]1O (some centres unmarked) [N-acetylgalactosamine], the “Ka, M^-1” value ([1]; no PEG, per monomer, abstract prints Kd 5.2 μM, inconsistent with this Ka (reciprocal 5.2 mM)) is reported as 192 ± 5.

CC(=O)N[C@H]1C(O)O[C@H](CO)[C@@H](O[C@@H]2O[C@H](CO)[C@H](O)[C@H](O)[C@H]2O)[C@@H]1O (some centres unmarked) [N-acetyllactosamine] showed a Kd ([1]; significant fitting errors stated for Ka below 100 M^-1, read-out: affinity constant (converted)) of roughly 20 mM.

With B1 the “stoichiometry N” value [2] was 0.23 and the dH [3] was -21.5 ± 0.5 kcal/mol.

For B2, the “stoichiometry N” value [2] was 0.23 and the dH [3] was -16.8 ± 2.5 kcal/mol.

With B3 the Ka [4] was 2.59e+06 ± 0.6 M⁻¹ and the Ka [5] was 590000 ± 1.4 M⁻¹.
